# Test results reported in publication PMC5686067.
# Assays:
# [1] = target: sNlpI (soluble NlpI without its lipoprotein signal peptide) (E. coli) (UniProt P0AFB1); test: SEC-MALS; ENrich SEC 650 column, 20 mM Tris-HCl pH 7.5, 200 mM NaCl, 2 mM DTT, 0.02% NaN3, 240-360 µg protein injected
# [2] = target: sNlpI (soluble NlpI without its lipoprotein signal peptide) (E. coli) (UniProt P0AFB1); test: AUC; sedimentation velocity, absorbance optics, 20 mM Tris-HCl pH 8.0, 100 mM NaCl, 2 mM DTT, 20 °C, c(s) model in Sedfit
# [3] = target: sMepS-6×His-C (soluble MepS without its lipoprotein signal peptide, C-terminal His-tag) (E. coli) (UniProt P0AFV4); test: ITC; iTC200, 20 °C, 20 mM HEPES pH 7.5, 300 mM NaCl, 2 mM 2-mercaptoethanol; 23 µM sMepS or Prc in the cell, 230 µM sNlpI (alone or with equimolar Prc) in the syringe; one binding site model
# Chain of sMepS-6×His-C (soluble MepS without its lipoprotein signal peptide, C-terminal His-tag) (E. coli) (P0AFV4 28-188 limits assumed): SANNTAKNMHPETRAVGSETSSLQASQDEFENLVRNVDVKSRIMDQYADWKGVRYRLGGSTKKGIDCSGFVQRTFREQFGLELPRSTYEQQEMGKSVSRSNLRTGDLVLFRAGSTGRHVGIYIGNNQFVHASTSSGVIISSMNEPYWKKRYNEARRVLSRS
# [4] = target: Prc (full-length, C-terminal His-tag) (E. coli) (UniProt P23865)
# Chain of Prc (full-length, C-terminal His-tag) (E. coli) (P23865 23-682 limits assumed): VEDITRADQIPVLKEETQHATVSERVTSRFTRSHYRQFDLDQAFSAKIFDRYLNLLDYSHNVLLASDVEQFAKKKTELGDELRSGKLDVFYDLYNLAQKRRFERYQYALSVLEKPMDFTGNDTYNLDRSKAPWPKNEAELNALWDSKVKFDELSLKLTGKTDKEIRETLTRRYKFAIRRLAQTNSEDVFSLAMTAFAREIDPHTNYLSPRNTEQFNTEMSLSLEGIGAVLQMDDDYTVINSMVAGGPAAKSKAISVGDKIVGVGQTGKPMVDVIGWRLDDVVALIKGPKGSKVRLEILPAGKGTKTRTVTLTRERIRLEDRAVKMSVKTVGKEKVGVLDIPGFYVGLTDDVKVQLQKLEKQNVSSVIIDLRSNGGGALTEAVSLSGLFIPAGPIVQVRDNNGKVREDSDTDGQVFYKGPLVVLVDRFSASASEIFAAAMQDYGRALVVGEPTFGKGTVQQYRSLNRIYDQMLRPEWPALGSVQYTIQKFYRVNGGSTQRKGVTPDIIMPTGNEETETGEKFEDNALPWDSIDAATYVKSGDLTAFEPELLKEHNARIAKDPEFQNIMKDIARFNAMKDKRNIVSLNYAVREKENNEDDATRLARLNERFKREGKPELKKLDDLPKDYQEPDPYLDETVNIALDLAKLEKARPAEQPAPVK
# Chain of sNlpI (soluble NlpI without its lipoprotein signal peptide) (E. coli) (P0AFB1 20-294): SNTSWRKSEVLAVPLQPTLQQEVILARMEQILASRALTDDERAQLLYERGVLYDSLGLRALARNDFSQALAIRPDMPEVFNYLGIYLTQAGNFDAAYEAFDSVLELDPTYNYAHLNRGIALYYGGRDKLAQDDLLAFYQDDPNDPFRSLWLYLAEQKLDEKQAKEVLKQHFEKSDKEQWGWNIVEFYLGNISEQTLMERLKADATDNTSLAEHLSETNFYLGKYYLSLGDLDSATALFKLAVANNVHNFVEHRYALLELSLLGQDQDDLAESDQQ
substance,measurement,setting,value
"Prc (full-length, C-terminal His-tag) (from UniProt P23865 23-682) (enzyme)",stoichiometry N (Prc per sNlpI (printed 2:2)),[1],1
same,stoichiometry N (Prc per sNlpI (printed 2:2)),[2],1
sNlpI-Prc complex (from UniProt P0AFB1 20-294; P23865 23-682),Kd,[3],2.09 µM
sNlpI-QM (D113A/E117A/D120/E124A quadruple mutant) (from UniProt P0AFB1 20-294) (natural protein),specific degradation activity of Prc against MepS with sNlpI-QM (nmol min^−1 per mg),[4],0.98
